Results: US20220348684A1 (YALE UNIVERSITY, published 2022)
Residue numbers refer to the chain shown, from its start. Ends that are not written are not given here. BSA = bovine serum albumin (carrier protein)

T1: 1F peptide conjugated to BSA
T1 construct: Renalase peptide present only in renalase-1; also called 1F-BSA protein; 1F antigen; not shown: BSA carrier, chemically conjugated via the cysteine
T1 peptide: C(BSA)VLEALKNYI

T2: peptide 3A conjugated to BSA
T2 construct: Renalase-2 specific peptide; also called 3A5; not shown: BSA carrier, chemically conjugated via the cysteine
T2 peptide: PSAGVILGC(BSA)

B1: monoclonal antibody 1F-26-1 (antibody, V domains shown)
VH: QSVKESEGGLFKPTDTLTLTCTVSGFSLSSYGVTWVRQAPGNGLEWIGLIGDRGTTFYASWAKSRSTITRNTNLNTVTLKMTRLTAADTATYFCARGSGYGARIWGPGTLVTVSS
VL: AQVLTQTPSPVSAAVGGTVTINCQSSQSVYKNNYLAWYQQKPGQPPKLLIYETSKLASGVPPRFSGSGSGTQFTLTISSVQCDDAATYYCQGGYSGVDFMAFGGGTEVVVKG
notes: Rabbit monoclonal from hybridoma, raised against the 1F peptide; also called IF 26-1
B2: monoclonal antibody 1F-42-7 (antibody, V domains shown)
VH: B1 VH with S29T, S30T, F57Y, A62V, K63N, S64G, S114A
VL: B1 VL with V11M, V15L, S28T, K31N, A36S, A57S
notes: Rabbit monoclonal from hybridoma, raised against the 1F peptide; Biotinylated in the biotin ELISA and Biacore assays; also called IF 42-7; M42
B3: monoclonal antibody 3A-5-2 (antibody, V domains shown)
VH: QSLEESGGRLVTPGTPLTLTCTVSGFSLNNYHIYWVRQAPGKGLEYIGIIFNGGTYYARWTKGRFTISKTSTTVDLKMTSLTTEDTATYFCARGDGIWGPGTLVTVSL
VL: AQVLTQTPASVSAAVGGTVTINCQASQSVFNNNYLAWYQQKPGQPPKRLIYSASTLASGVSSRFKGSGSGTEFTLTMSGVECDDAATYYCAGSFDCNSGDCVAFGGGTEVVVKG
notes: Rabbit monoclonal from hybridoma, raised against the renalase-2 specific peptide 3A (3A5)
B4: M28-K5 (humanized, affinity-matured variant of M28) (antibody, V domains shown)
VH: EVQLVESGGGLVQPGGSLRLSCAASGFNLSSFAVHWVRQAPGKGLEWVALISGRGTRFYADSVKGRFTISKDTSKNTAYLQMNSLRAEDTAVYYCARHWYSGGVVRLDAWGQGTLVTVSS
VL: DIQMTQSPSSLSASVGDRVTITCRASQSVYDNNNVAWYQQKPGKAPKLLIYGASTLYSGVPSRFSGSRSGTDFTLTISSLQPEDFATYYCLGEGPCSVTDCLIFGQGTKVEIKR
B5: M28-K14 (humanized, affinity-matured variant of M28) (antibody, V domains shown)
VH: B4 VH with H98Y, W99G, G103D, V105N, A109L
VL: B4 VL
notes: the residue limits are my own count; also called M28-14
B6: M28-K2 (humanized, affinity-matured variant of M28) (antibody, V domains shown)
VH: B4 VH with S52G, G53V, T56S, R57L, F58Y
VL: B4 VL
B7: M28-K13 (humanized, affinity-matured variant of M28) (antibody, V domains shown)
VH: B4 VH with S52G, G53V, T56S, R57L, F58Y
VL: B4 VL with G94F, P95S, V98S, T99A, L102F, I103A
B8: M28-K16 (humanized, affinity-matured variant of M28) (antibody, V domains shown)
VH: B4 VH
VL: B4 VL with G94F, P95S, V98S, T99A, L102F, I103A
notes: the residue limits are my own count
B9: monoclonal antibody 1D-28-4 (antibody, V domains shown)
VH: QSVEESGGRLVTPGTPLTLTCTVSGFSLSSFAVGWVRQAPGKGLEYIGIISSVGITRYASWAAGRFTISKTSTTVDLKITSPTTEDTATYFCARYGYSGDVNRLDLWGQGTLVTVSS
VL: AQVLTQTASPVSAAVGGTVTINCQASQSVYDNNNLAWYQQKPGQPPKQLIYGASTLASGVSSRFKGSGSGTQFTLTISGVQCDDAATYYCLGEFSCSSADCFAFGGGTEVVVKG
notes: also called m28-RNLS; Ren1D 28-4

Key:
[1] = target: T1, 1F peptide conjugated to BSA; assay: ELISA on coated 1F peptide-BSA conjugate, antibody dilution series, anti-rabbit IgG-HRP
Procedure: (§1) Peptide-Antigen Specificity ELISA: Bovine serum albumin (BSA)-conjugated renalase peptide antigen, diluted to 100 ng/well in PBS, was bound to a 96 well microtiter plate by overnight incubation at 4° C. The plate was blocked with a solution of 8% NFDM in PBS for one hour at 33° C. The peptide antigen was probed with a dilution series of the antibody raised against it, or with an antibody raised against a different antigen. The starting concentration of antibody was typically 5 μg/mL, with two-fold dilution steps prepared in PBS containing Tween-20 to 0.05% (PBST). After one hour incubation at 33° C., the plate was rinsed three times with PBST. Antibody binding was assayed by adding HRP-conjugated anti-rabbit IgG at 50 ng/mL, 50 μL per well. The plate was incubated at room temperature for 40 minutes. After incubation, the plate was washed three times with PBST and once with PBS. The HRP substrate 3, 3′, 5, 5′-tetramethylbenzidine (TMB) was added to 100 μL per well, and plate was incubated for approximately 5 minutes at room temperature. To stop the reaction, 100 μL 2 N […] was added to each well. The plate was read at 450 nm in a spectrophotometer.
(§2) Renalase peptides used for immunization were synthesized, then conjugated to bovine serum albumin (BSA). […] The plate was read at 450 nm in a spectrophotometer after reaction of HRP with the substrate TMB. […]

[2] = target: T3, renalase-2 (recombinant protein) (human, UniProt Q5VYX0 18-293); assay: ELISA on coated renalase-2, antibody dilution series (axis: log (ng/ml) supe), anti-rabbit IgG-HRP
T3 construct: Bacterially expressed and coated on ELISA plates; also called renalase-2 isoform
T3 sequence (Q5VYX0 other isoform, or with tags, fused parts or gaps limits assumed): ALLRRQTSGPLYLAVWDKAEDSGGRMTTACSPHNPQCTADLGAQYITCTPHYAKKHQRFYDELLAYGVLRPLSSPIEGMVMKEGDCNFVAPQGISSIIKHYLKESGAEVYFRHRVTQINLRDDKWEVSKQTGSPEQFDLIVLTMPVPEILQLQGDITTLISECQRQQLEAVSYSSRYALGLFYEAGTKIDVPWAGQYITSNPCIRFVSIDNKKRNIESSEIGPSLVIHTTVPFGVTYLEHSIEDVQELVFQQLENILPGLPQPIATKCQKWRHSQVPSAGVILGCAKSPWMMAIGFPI
Procedure: Bacterially-expressed renalase-1 and 2 isoforms, were diluted to 100 ng/well in PBS and bound to a 96 well microtiter plate. The plate was blocked with a solution of 8% NFDM in PBS for one hour at 33° C. The renalase proteins were probed with a dilution series of the antibodies 1D-28-4, 1D-37-10, 1F-42-7, 1F-26-1 and 3A5-2. The starting concentration of antibody was typically 1μg/mL, with two-fold dilution steps prepared in PBS containing Tween-20 to 0.05% PBST. After one hour incubation at 33° C., the plate was rinsed three times with PBST. Antibody binding was assayed by adding HRP-conjugated anti-rabbit IgG at 50 ng/mL, 50μL per well. The plate was incubated at room temperature for 40 minutes. After incubation, the plate was washed three times with PBST and once with PBS. The HRP substrate 3, 3′, 5, 5′-tetramethylbenzidine (TMB) was added to 100 μL per well, and plate was incubated for approximately 5 minutes at room temperature. To stop the reaction, 100 μL 2 N H₂SO₄ was added to each well. The plate was read at 450 nm in a spectrophotometer.

[3] = target: T4, renalase-1 (full-length recombinant protein) (human, UniProt Q5VYX0 18-342, limits assumed); assay: competition ELISA on coated renalase-1: unconjugated 1F 42-7 titrated against a constant amount of biotinylated 1F 26-1, NeutrAvidin-HRP [panel A]
T4 construct: Coated on ELISA plates as bacterially expressed renalase-1; Injected as purified recombinant renalase-1 in the Biacore assay; also called renalase-1 protein; RNLS
T4 sequence (Q5VYX0 18-342 limits assumed): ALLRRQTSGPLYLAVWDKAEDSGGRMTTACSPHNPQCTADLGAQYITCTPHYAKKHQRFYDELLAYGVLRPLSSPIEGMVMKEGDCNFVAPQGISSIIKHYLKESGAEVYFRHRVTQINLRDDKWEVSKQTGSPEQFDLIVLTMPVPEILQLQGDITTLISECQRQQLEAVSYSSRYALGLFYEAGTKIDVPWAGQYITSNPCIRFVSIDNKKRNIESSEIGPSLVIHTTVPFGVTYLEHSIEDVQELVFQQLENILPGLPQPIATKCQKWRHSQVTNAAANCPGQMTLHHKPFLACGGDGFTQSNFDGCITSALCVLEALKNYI
Procedure: (§3) Specificity of Epitope Binding: Bacterially-expressed renalase isoforms, diluted to 100 ng/well in PBS, were bound to a 96 well microtiter plate by overnight incubation at 4° C. The plate was blocked with a solution of 8% NFDM in PBS for one hour at 33° C. The renalase protein was probed with a dilution series of an unconjugated antibody, typically starting at 1 μg/mL, mixed with a different biotinylated antibody. […] Both antibodies were mixed together in PBST and applied as one addition of 50μL per well. After one hour incubation at 33° C., the plate was rinsed three times with PBST. Binding of the biotinylated antibody to renalase was assayed by adding HRP-conjugated Neutravidin (HRP-NA) at 0.4 ng/mL, 50 μL per well. The plate was incubated at room temperature for 40 minutes. After incubation, the plate was washed three times with PBST and once with PBS. The HRP substrate 3, 3′, 5, 5′-tetramethylbenzidine (TMB) was added to 100 μL per well, and plate was incubated for approximately 5 minutes at room temperature. To stop the reaction, 100 μL 2 N H2504 was added to each well. The plate was read at 450 nm in a spectrophotometer.
(§4) Bacterially-expressed renalase-1, diluted to 100ng/well in PBS, was bound to a 96 well microtiter plate by overnight incubation at 4° C. […]

[4] = target: T2, peptide 3A conjugated to BSA; assay: ELISA on peptide antigen
Procedure: as §1, §2

mouse renalase [5] = target: T5, mouse renalase (mouse, UniProt A7RDN6 18-342, limits assumed); assay: cell-based or functional assay
T5 sequence (A7RDN6 18-342 limits assumed): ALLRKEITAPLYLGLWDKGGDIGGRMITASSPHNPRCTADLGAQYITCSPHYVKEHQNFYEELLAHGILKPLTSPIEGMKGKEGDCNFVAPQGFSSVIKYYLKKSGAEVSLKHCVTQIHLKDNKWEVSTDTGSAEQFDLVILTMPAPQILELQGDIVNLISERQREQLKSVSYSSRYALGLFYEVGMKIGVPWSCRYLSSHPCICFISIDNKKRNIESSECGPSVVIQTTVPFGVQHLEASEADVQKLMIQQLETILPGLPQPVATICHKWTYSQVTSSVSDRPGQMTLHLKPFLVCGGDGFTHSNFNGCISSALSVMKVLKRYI

human renalase [6] = target: T6, human renalase (human, UniProt Q5VYX0 18-342, limits assumed); assay: cell-based or functional assay
T6 sequence (Q5VYX0 18-342 limits assumed): as the sequence (Q5VYX0 18-342 limits assumed) above

mouse renalase [7] = target: T5, mouse renalase; assay: multipoint ELISA (A450), IgG dilution series on mouse renalase
human renalase [8] = target: T6, human renalase; assay: multipoint ELISA (A450), IgG dilution series on human renalase
[9] = target: T4, renalase-1 (full-length recombinant …); assay: competition ELISA on coated renalase-1: unconjugated 1D 28-4 titrated against a constant amount of biotinylated 1D 37-10, NeutrAvidin-HRP [panel A]
Procedure: as §3, §4

Row | Binder | IC50 of % cell survival, YUMM1.7 (mouse melanoma) cells (mouse renalase [5]) | IC50 of % cell survival, BxPC3 (human pancreatic adenocarcinoma) cells (human renalase [6]) | EC50 (read off the curve) (human renalase [8]) | further results
1 | B1 |  |  |  | EC50 (read off the curve) [1]: ~0.3 µg/mL; binding result [2]: no binding (tested: 1000 ng/ml)
2 | B2 |  |  |  | EC50 (read off the curve) [1]: ~0.3 µg/mL; binding result [2]: no binding (tested: 1000 ng/ml); IC50 (read off the curve) [3]: ~1 µg/mL
3 | B3 |  |  |  | binding result [4]: binds
4 | B4 | 3760 nM | 24.5 nM |  | 
5 | B5 | 1.41 nM |  | ~0.06 nM | EC50 (read off the curve) (mouse renalase [7]): ~0.08 nM
6 | B6 | 1330 nM | 31.7 nM |  | 
7 | B7 | 31.5 nM | 25.5 nM |  | 
8 | B8 | 17.5 nM | 1700 nM | ~0.05 nM | EC50 (read off the curve) (mouse renalase [7]): ~0.06 nM
9 | B9 | 70 nM | 1.5 nM | ~0.3 nM | IC50 (read off the curve) [9]: ~2 µg/mL
